Measured values published in paper doi:10.1101/2022.08.08.503151.

Biological target: 80S ribosome (yeast) (S. cerevisiae (endogenous in TB50a)) (UniProt P14126)
Assay: co-sedimentation

Chain of UniProt P14126 (P14126 whole entry, looked up): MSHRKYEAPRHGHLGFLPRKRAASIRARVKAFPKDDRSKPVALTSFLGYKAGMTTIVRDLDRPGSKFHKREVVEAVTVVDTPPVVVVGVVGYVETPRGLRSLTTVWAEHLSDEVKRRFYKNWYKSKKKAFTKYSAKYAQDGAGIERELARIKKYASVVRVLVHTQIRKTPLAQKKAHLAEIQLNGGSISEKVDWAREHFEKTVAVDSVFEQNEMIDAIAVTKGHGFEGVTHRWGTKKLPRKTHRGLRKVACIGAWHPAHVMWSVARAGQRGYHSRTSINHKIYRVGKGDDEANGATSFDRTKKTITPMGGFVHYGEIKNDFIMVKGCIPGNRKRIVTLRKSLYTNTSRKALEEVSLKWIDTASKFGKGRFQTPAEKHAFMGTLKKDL

B1: Stm1 (suppressor of target of Myb protein 1) (natural protein)
chain: MSNPFDLLGNDVEDADVVVLPPKEIVKSNTSSKKADVPPPSADPSKARKNRPRPSGNEGAIRDKTAGRRNNRSKDVTDSATTKKSNTRRATDRHSRTGKTDTKKKVNQGWGDDKKELSAEKEAQADAAAEIAEDAAEAEDAGKPKTAQLSLQDYLNQQANNQFNKVPEAKKVELDAERIETAEKEAYVPATKVKNVKSKQLKTKEYLEFDATFVESNTRKNFGDRNNNSRNNFNNRRGGRGARKGNNTANATNSANTVQKNRNIDVSNLPSLA
fold accumulation in the 80S fraction, without CHX against CHX-treated: 3 fold
